According to article PMC7614968:

Molecular target: SteD (untagged, HIS tag cleaved) (Salmonella enterica serovar Typhimurium (14028s))
Assay: SEC-MALS; co-purified untagged SteD-SrcA complex at 8 mg/ml on analytical Superdex200 in the dialysis buffer (20 mM phosphate pH 6.8, 150 mM NaCl, 5 % glycerol, 1 mM DTT), 0.4 ml/min

Question: How did the stoichiometry N (SrcA molecules per SteD molecule) turn out when “SrcA (untagged, recombinant) (natural protein)” was run?
Answer: 2
